# Assay results published in a protein production outcome set (Wang et al. 2014).
# Assay: label from the status in PepcDB records
sequence,measurement,value
MPVDAKTKYKAKKIKIVFFDIDDTLRVKKTGYIPESIKAVFKGLKEKGILTGIATGRGYYGVVEEILDLEPDYFVTINGTYVINRKGEEIYNQPLAREVTEAFVAWCKEIGIAWGFAGKDKPVVSERSELIDDAIVPIYGICDVEPDFHLTNDVYQMWTFAENNGDLKLPEELAAHVRLVPWHEHSSDVVATGISKASGVGHVLEHENLTPVNAMMFGDGPNDKEIFDYVGLKIAMGNATPELKAKADYVTGTVEEDGIFNALEELGLVEKELHFPQLDLDTVEGPVATIKTNHGDLVIKLFPDHAPLAVTNFVNLAKSGYYDGVIFHRIIKDFMIQGGDPTGTGMGGESSFGGSFQDEFSEELYNLRGALSMANAGPDTNGSQFFIVQAPEIPYAKKELERGGWPAPIAEAYAENGGTPHLDRRHTVFGHLVDEASYKVLDEIANVEVGTQDKPLEEVVIETIEVTDLEHHHHHH,protein production,not failed
MKKNKLTTLALILPITILTPIVIASCTNKTKVKKSSSLDKIASNLKLEYFNNKANTKASSVQKDEIKKPLNLPNDVVFSVKDVFVSHKDQSVLIVKYTLKKGNEIQEYTYEIKGFKSVYEKDKIVNDLSQANEDFKKIVNNIRLKDTFDFKLAAFPNQNYDQLLPSQIYKNYYQGIEIQQHKYQNELDIKIINFLYPDGDFGSANKNGTLKLSLMLTDKKNNQVYYKLLEVSGFKSNPYGVDENGTIPGIGTERLKPKNQDDYFSKTQLQRYEIDNEGYLQILKRQNNDKNWKELRPDLNATVSDIKHFDEKAKNVGQDSYESAAYKGFTLPVYESDGKISGLALAGKDTPKGPSWVDAIGRNQWQIGGLPRTLPNEKYRQEAMQTFSLGILNNDSHKNNTYNKTAGTTWILDYQKTSDNKYPTKWYFATNLHVADAINENTLSINLMRLMDSAQIKTTFRLSNLDENIYNFGFRSKEHGKNLLNHGLKKIFDGRDFLKTKPAEYLINSQKEKYKDVGNFTDFAVFELDFEKLELVNVWKNFLGENNGLVTKYNNYNPQELAKVITSNYANNKNNQIKFLSKSYLSDYSKIDVPLKYRQEDAKTWFKKYDELFALGWPNSTEDFFFKAYVDDDQLKYRTRDNFSLWTNSDYRFFNNLTQQEGGQPAFPPERTERGNYLSYAIGFRSFIQKPGIVDAFIAVPQIGNNLYTSSDNKKYINMGLEYLPKHFAPAGGASGTSVRNQKNELVAIYHAKYDSSKTGLAAAFRSEGYDYQGLYGNYNLPQYDLIYGGGKDQTEKKSYREAMKDIYQNNNIKTALFPDGFDKIPDEFKFNNN,protein production,failed
MEQLAKLSMTDRLTGLLNRGTWENLVDAEYERFRRYGQATSLVMFDIDHFKPVNDTYGHLAGDEVIRHTADVTRNNIRQSDSAGRYGGEEFGIILPETDAESARVICERIREAIEKSTVSTSAGDIQYTVSMGIAQLTETPENYMQWMQKADEALYKAKESGRNKVVVSLEHHHHHH,protein production,not failed
MPAIGSAPDGSRVSFMPKAWLLLALLLLLSLPARAEEWPALQWSQGTPASGPALQALEEYAFVPRDDESRQGIRTDALLVIRDGRLLYERYAGATGPQTPHLAWSASKSLLAVLLGVAFGEGRFQLQDPAAKFYPPLEAHPDITLADLLHWASGLDWQEDYEYAPLNSSVVAMLYTRGHRDMAAFTVQQAASGPPGQVFRYSSGDSNLLAASLRGMVGEGQYADYPWRALFEPLGITQAVWERDAAGTFVASSYLYLTARDLARIGLLMQRDGRWRDRQLLPKAWVEFCRTPFRGYRANQDVAVAGGHWWLNREVDGAPRPWPDAPADTYAALGHWGQALYVLPAQRLVIVRYGDDRDGSYQHNELLKRVLAAFATPEQP,protein production,failed
MNLDLGSTVRGYESDKDTFPQSKGVSSSQKEQHSQLNQTKIAYEQRLLNDLEDMDDPLDLFLDYMIWISTSYIEVDSESGQEVLRSTMERCLIYIQDMETYRNDPRFLKIWIWYINLFLSNNFHESENTFKYMFNKGIGTKLSLFYEEFSKLLENAQFFLEAKVLLELGAENNCRPYNRLLRSLSNYEDRLREMNIVENQNSVPDSRERLKGRLIYRTAPFFIRKFLTSSLMTDDKENRANLNSNVGVGKSAPNVYQDSIVVADFKSETERLNLNSSKQPSNQRLKNGNKKTSIYADQKQSNNPVYKLINTPGRKPERIVFNFNLIYPENDEEFNTEEILAMIKGLYKVQRRGKKHTEDYTSDKNRKKRKLDVLVERRQDLPSSQPPVVPKSTRIEVFKDDDNPSQSTHHKNTQVQVQTTTSILPLKPVVDGNLAHETPVKPSLTSNASRSPTVTAFSKDAINEVFSMFNQHYSTPGALLDGDDTTTSKFNVFENFTQEFTAKNIEDLTEVKDPKQETVSQQTTSTNETNDRYERLSNSSTRPEKADYMTPIKETTETDVVPIIQTPKEQIRTEDKKSGDNTETQTQLTSTTIQSSPFLTQPEPQAEKLLQTAEHSEKSKEHYPTIIPPFTKIKNQPPVIIENPLSNNLRAKFLSEISPPLFQYNTFYNYNQELKMSSLLKKIHRVSRNENKNPIVDFKKTGDLYCIRGELGEGGYATVYLAESSQGHLRALKVEKPASVWEYYIMSQVEFRLRKSTILKSIINASALHLFLDESYLVLNYASQGTVLDLINLQREKAIDGNGIMDEYLCMFITVELMKVLEKIHEVGIIHGDLKPDNCMIRLEKPGEPLGAHYMRNGEDGWENKGIYLIDFGRSFDMTLLPPGTKFKSNWKADQQDCWEMRAGKPWSYEADYYGLAGVIHSMLFGKFIETIQLQNGRCKLKNPFKRYWKKEIWGVIFDLLLNSGQASNQALPMTEKIVEIRNLIESHLEQHAENHLRNVILSIEEELSHFQYKGKPSRRF,protein production,failed
MQAGQVATNDLTISGIVNTVPASAVFAREANPVKVLNVKNTGDETLSNISIAVYASDVSSGTVPVDTTTIASLAGDATTTVTLIDPTIRDLEGGTVTYTAVVDPDNLIAETDETNNNKSSLEHHHHHH,protein production,failed
MDELFTESAKAVLAIAQEEAKYFRHQSVGSEHLLLALVLEPNGIAGKTLRQLNTDTEDIREEIEHLSGYGTMQSPMGNNNLYLPYSPRAKQIFAYAGDEAKRLGAQKIGTEHLLLGLLRDEEILASRILVNLGLSLSKMRQLLLKKMG,protein production,not failed
MERVQRLRLTFGKTGEMTLLSHLDLLRLFERAVRRAHLPIAFSGGFHPSPRISTASALPLGVTSYGEIVDLEFYREVDAQTVLEQLRQQLPQEIPLYGCEVVPLSEPAASQALRAATYELLIRTPEPLERETWEQWLETLRATPEILYELTTKSGKTLEHHHHHH,protein production,failed
MTFANTASINHYWRTHPALFTAMLLVVVLITSYFIDVFSGSAIAVLLILQLAVVVVALQCSANYAYFVAVFGAVSFNFLFTAPRYSLQMLNVEDIVNLTVFLLAALTSSKLAKHYRRQQDALEQAQLRNSILLSVSHDLRTPLATIIGTLTTLKEYQPKLSPAQTEELIDSAAAESHRLHQYIENLLQANKLQHGALKFSLDEANIREVLQRTIARFQTEQPRIQIQSEPELPSLMICSSLIEQAIFNVLDNALHYSPATQPVTVSLYRHQHMLRIDIQDQGKGIAPSQTGAIFELFYRQHPTTDGGAGLGLPVAKGIITAHNGTISAEKVAHGSLIRIALPITKESA,protein production,failed
LDLQIIMDDLLNLLLKEFKLDLAVIRLVDEKGVLRVRSYSGKGIAGIAGKDWEPEIETYIGEAFLSNRLQFVNDTQYMTKPLTRELMQKEGIKSFAHIPISRKGEPPFGILSVFSRTIVGLFNEPFLNLLESLAGQLAQAVKIVTEMEAKEREREEKERILLENARVVKEMEIAKQIQLSLLPSAPPTLPRH,protein production,failed
EPAHGRQHTPCLFCDRLFASAEETFSHCKLEHQFNIDSMVHKHGLEFYGYIKLINFIRLKNPTVEYMNSIYNPVPWEKDEYLKPVLEDDLLLQFDVEDLYEPVSTPFS,protein production,not failed
MDLKTSYKGISLNPIYAGSSAVATVSENGKILATPVLDEINIIDLTPGSRKILHKISNEDEQEITALKLTPDGQYLTYVSQAQLLKIFHLKTGKVVRSMKISSPSYILDADSTSTLLAVGGTDGSIIVVDIENGYITHSFKGHGGTISSLKFYGQLNSKIWLLASGDTNGMVKVWDLVKRKCLHTLQEHTSAVRGLDIIEVPDNDEPSLNLLSGGRDDIINLWDFNMKKKCKLLKTLPVNQQVESCGFLKDGDGKRIIYTAGGDAIFQLIDSESGSVLKRTNKPIEELFIIGVLPILSNSQMFLVLSDQTLQLINVEEDLKNDEDTIQVTSSIAGNHGIIADMRYVGPELNKLALATNSPSLRIIPVPDLSGPEASLPLDVEIYEGHEDLLNSLDATEDGLWIATASKDNTAIVWRYNENSCKFDIYAKYIGHSAAVTAVGLPNIVSKGYPEFLLTASNDLTIKKWIIPKPTASMDVQIIKVSEYTRHAHEKDINALSVSPNDSIFATASYDKTCKIWNLENGELEATLANHKRGLWDVSFCQYDKLLATSSGDKTVKIWSLDTFSVMKTLEGHTNAVQRCSFINKQKQLISCGADGLIKIWDCSSGECLKTLDGHNNRLWALSTMNDGDMIVSADADGVFQFWKDCTEQEIEEEQEKAKLQVEQEQSLQNYMSKGDWTNAFLLAMTLDHPMRLFNVLKRALGESRSRQDTEEGKIEVIFNEELDQAISILNDEQLILLMKRCRDWNTNAKTHTIAQRTIRCILMHHNIAKLSEIPGMVKIVDAIIPYTQRHFTRVDNLVEQSYILDYALVEMDKLF,protein production,failed
MEKDDSNDGSIIGGNGITAGKDVFLHNIKAPVNIGNTNNTNQNYTTYIISENIEEHTKSLIDFAQFCENKREYEKALDYYEQARVKLEKSESKILLVKVMMGEAVCHHKKGNLSRAKNLIFEAERLDPKNPTVLANIASQLKSENPDEAEIYAKKALEFDKNNFLAKCVIGLLEYDKGNIKDSLRTLKQASTINPNVGYPFNCMARIYSSEKDYGNAIKYGKKAVKIESDNAIFLMELAIDYMNIAFPENEVCISSDFSKMLKMEYLEKALKCLEKAKEMSESQGNNYLNCEIYTYLSRVHLAKGEFNKSIEYCEMIINSGLDTIDIYIILGEAYGECQNYDKVIEYYELLLKRENLTENHLFIVKANLATSYFYKNRLNEAEKLFKELIDENPENINLCIQMSNVLEENGKIEKAFSLLEKIDKFSQKPWDFYYMMGRLYHKKDDYESSVKYLKEAISKNSEAIPPRIYLINLYLECGMHKYAVKQAIELIQLAPTGINFYKLASLYYEIGDYKESAVFSRKALEADYGKVETYRLLCSSLLEANKLSEAKDEFENAFTKYPDDLELKLNYSATLSALEYTEKAIEILTQIISNDPNVVFAYKALARIYYKEASYEIALEYSKKAVFIEPEDEDAHFVMGCSLLNLGKNDEAVEEIQKVIEINPNFDSAWLIDAEKGMEYLGNLITISNHIIERYENGNITISKVGELLIKDTFDLLCHINNVKVAESLSLSDEKIDQLRNSPISKRDVLVDETMLGILAKTGSLDLLRLAFDHVYVIKELEDKIVIGPYLKDHPYRDVKNKLQIIDGGWIESLNPNDMIALATKKIVVENKFSKNDISFIALALDKDFLCLTEDLLLRIQLESINKPTCGIFGFVNYAVSKNIIKQDDAEKIFTKVKSVCIVE,protein production,failed
MLQIIFLVIGLFIIVLALSFAFKRYARLILWSSAITLFAGTLLLVGIGVINPIDGDNTGSTTFWGTIITLISGAALAFCAEMLKEGNKGKTKVQNGNSSVSGKQTADNEETVVLIGMLHTELAIKVFAKAIEAGYIGEKGSHYKWNDSKVLLAYMCGRIYCGDKPEYSEMDEKSYWKFGRMGVFPDTELSNLFEMPDLGQSRSNRKDLAVPAKSKEIDKFFE,protein production,failed
IESASDMIAAFGKDQRFITFNEAYQREFKRLFDKSISINMSLEEAFNNAPENKKKLVQSWKESLQRDEETKNIEVNTEQEKTIYEMTSKLIQNGDNEIKGVVHSVRNIT,protein production,failed
MNQKMIIGNAEAICLPELGITHLEARIDTGAQTSSLHVDNIDCFEKDGQSYVAFDLHPDVYHLEQVVRCTAKLKANRKVKSSNGTFEHRCVITTMLRLGDQEWPIDITLTNREKMTYMMLLGRQGMADKVLVDPSQSHLLAS,protein production,not failed
FTPDYIFTSKIDTSYVRQDIVPEINGWNIDRWIEEIACNDNQVVKLLWQVINDSMNGNYTRKKAIFFVGDGNNGKGTFQELLSNVIGYSNIASLKVNEFDERFKLSVLEGKTAVIGDDVPVGVYVDDSSNFKSVVTGDPVLVEFKNKPLYRATFKCTVIQSTNGMPKFKDKTGGTLRRLLIVPFNANFNGIKENFKIKEDYIKNQQVLEYVLYKAINLDFET,protein production,failed
